From paper PMC11629678, “Hypoxia favors tumor growth in colorectal cancer in an integrin αDβ1/hemoglobin δ-dependent manner” (Life Science Alliance, 2024)

Molecular target: the molecule itself
Test: SDS-polyacrylamide gel electrophoresis and blot; recombinant His-tagged Hbδ and Hbβ (HbAo) on a 4-20% SDS gel and blotted; non-reducing conditions in the legend, reducing conditions in the text

B1: recombinant Hbδ (natural protein)
chain: not shown
notes: hemoglobin subunit delta, recombinant, His-tagged (Origene); No catalogue number is printed; also called His-tagged recombinant Hbδ; source: bought: Origene
  binding result: binds
